The values that follow come from US20160000936A1 (AbbVie / Abbott, published 2016).

One assay addresses T1, murine IL-17 (mouse, UniProt Q62386 26-158).
T1 construct: also called mouse IL-17
T1 sequence (looked up): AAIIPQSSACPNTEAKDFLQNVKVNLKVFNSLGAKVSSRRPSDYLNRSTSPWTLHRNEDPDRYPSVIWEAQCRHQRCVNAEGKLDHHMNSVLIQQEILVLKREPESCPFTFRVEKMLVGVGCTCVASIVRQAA
Description: assay not described; table titled 'Source And Binding Information'.

The target in another assay is T2, murine TNF (mouse, UniProt P06804 80-235).
T2 construct: also called mouse TNFα; TNFα
T2 sequence (looked up): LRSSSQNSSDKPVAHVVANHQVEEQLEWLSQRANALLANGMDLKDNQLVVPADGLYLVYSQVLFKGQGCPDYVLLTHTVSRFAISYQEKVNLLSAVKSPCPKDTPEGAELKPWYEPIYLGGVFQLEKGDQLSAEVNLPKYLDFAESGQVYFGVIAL
Described as above.

As a reminder, the IC50 is the midpoint of a concentration-inhibition curve. Low values mean greater potency, high ones weaker potency.

B1: anti-mouse TNF/IL-17 DVD-Ig protein 8C11/10F7M11 (bispecific antibody, human IgG1, kappa, L234A L235A)
heavy: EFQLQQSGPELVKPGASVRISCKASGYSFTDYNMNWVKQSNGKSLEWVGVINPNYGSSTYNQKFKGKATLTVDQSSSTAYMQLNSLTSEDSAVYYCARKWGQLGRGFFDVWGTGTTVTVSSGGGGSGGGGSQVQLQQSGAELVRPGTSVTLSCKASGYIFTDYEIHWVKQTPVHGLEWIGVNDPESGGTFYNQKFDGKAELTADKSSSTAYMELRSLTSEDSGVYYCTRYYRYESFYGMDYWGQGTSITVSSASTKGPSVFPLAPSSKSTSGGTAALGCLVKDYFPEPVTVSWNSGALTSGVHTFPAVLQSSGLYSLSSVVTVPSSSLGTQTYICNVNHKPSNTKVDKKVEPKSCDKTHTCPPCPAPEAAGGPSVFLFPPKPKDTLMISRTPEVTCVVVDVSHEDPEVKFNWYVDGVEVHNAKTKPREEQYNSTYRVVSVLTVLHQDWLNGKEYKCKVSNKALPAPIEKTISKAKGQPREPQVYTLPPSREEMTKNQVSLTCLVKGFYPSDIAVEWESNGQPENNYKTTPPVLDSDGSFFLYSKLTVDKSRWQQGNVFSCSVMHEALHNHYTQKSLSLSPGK
light: QIVLSQSPAILSASPGEKVTMTCRASSSVSYMHWFQQKPGSSPKPWIYATSNLASGVPARFSGSGSGTSYSLTISRVEAEDAATYYCQQWSSSPLTFGAGTKLELKRGGSGGGGSGQIVLTQSPAIMSASPGEKVTMTCSASSSISYIYWFQQKPGTSPKRWIYATFELASGVPARFSGSGSGTSYSLTISSMEAEDAATYYCHQRSSYPWTFGGGSKLEIKRTVAAPSVFIFPPSDEQLKSGTASVVCLLNNFYPREAKVQWKVDNALQSGNSQESVTEQDSKDSTYSLSSTLTLSKADYEKHKVYACEVTHQGLSSPVTKSFNRGEC
notes: The constant regions of the protein actually assayed are therefore uncertain; also called 8C11/10F7-DVD-Ig protein; 8C11/10F7M11 anti-TNF/IL-17 DVD-Ig protein
Consider B1, for which the half-maximal inhibitory concentration (IC50) with murine IL-17 amounted to 0.13 nM; in the assay with murine TNF it was 2 nM.

B2: anti-murine TNF antibody 8C11 (antibody, mouse IgG2c, V domains shown)
VH: EFQLQQSGPELVKPGASVRISCKASGYSFTDYNMNWVKQSNGKSLEWVGVINPNYGSSTYNQKFKGKATLTVDQSSSTAYMQLNSLTSEDSAVYYCARKWGQLGRGFFDVWGTGTTVTVSS
VL: QIVLSQSPAILSASPGEKVTMTCRASSSVSYMHWFQQKPGSSPKPWIYATSNLASGVPARFSGSGSGTSYSLTISRVEAEDAATYYCQQWSSSPLTFGAGTKLELKR
notes: also called 8C11 anti-TNF antibody; anti-TNFα antibody 8C11
B2 gave a 50% inhibitory concentration (IC50) in the assay with murine TNF of 2 nM.
